System: E. coli strain DH5α
Test: Growth (OD600) in M63 broth containing glyphosate of cells carrying pAX299 (grg8)
Assay type: cell-based
Conditions: for OD600: 37° C., about 46 hours, means ± standard deviations, triplicate cultures
Procedure: The grg8 open reading frame (ORF) was amplified by PCR, cloned into the plasmid vector pCR-Blunt-II from Invitrogen, and transformed into E. coli strain DH5α. Plasmid DNA was prepared and the presence and orientation of the inserts were determined by restriction digest. One clone contained the ORF in the forward orientation with respect to the lac promoter in the vector. This plasmid was named pAX299. The insert was sequenced and the plasmid was tested for the ability to confer resistance to glyphosate.
pAX299 was tested for the ability to grow on M63 medium in the presence of glyphosate using cells containing empty vector as a control. The plasmid pAX296 in host strain DH5α was used as a negative control. This plasmid contains a fragment of tobacco genomic DNA cloned into the vector pCR-Blunt-II. Starter cultures of the two strains were grown in M63 broth with 50 μg/ml kanamycin to maintain the plasmid. The starter cultures were diluted to approximately equal cell densities, as determined by measuring OD600, then diluted 1 to 200 into 3 ml of M63 broth containing 0 to 200 mM glyphosate. Triplicate 3 ml cultures of each strain in each concentration were grown. Cultures were grown at 37° C. with constant shaking. After about 46 hours, 0.3 ml aliquots were withdrawn and the OD600 was measured. Values represent means + standard deviations.

B1: grg8: Glyphosate resistance gene from strain ATX4145 encoding a novel non-Class II EPSP synthase (SEQ ID NO:3); ORF carried in plasmid pAX299 (protein, listed as Brevundomonas vesicularis)
chain: MMMGRAKLTIIPPGKPLTGRAMPPGSKSITNRALLLAGLAKGTSRLTGALKSDDTRYMAEALRAMGVTIDEPDDTTFIVKGSGKLQPPAAPLFLGNAGTATRFLTAAAALVDGKVIVDGDAHMRKRPIGPLVDALRSLGIDASAETGCPPVTINGTGRFEASRVQIDGGLSSQYVSALLMMAAGGDRAVDVELLGEHIGALGYIDLTVAAMRAFGAKVERVSPVAWRVEPTGYHAADFVIEPDASAATYLWAAEVLSGGKIDLGTPAEQFSQPDAKAYDLISKFPHLPAVIDGSQMQDAIPTLAVLAAFNEMPVRFVGIENLRVKECDRIRALSSGLSRIVPNLGTEEGDDLIIASDPSLAGKILTAEIDSFADHRIAMSFALAGLKIGGITILDPDCVAKTFPSYWNVLSSLGVAYED
For B1, the OD600 (0 mM glyphosate) was 1.18 ± 0.029, the “Glyphosate resistance (conclusion from Table 1)” value (0 to 200 mM glyphosate) was “confers resistance to high levels of glyphosate” and the OD600 (10 mM glyphosate) was 1.15 ± 0.018. The OD600 (20 mM glyphosate) was 1.10 ± 0.043, the OD600 (50 mM glyphosate) was 1.20 ± 0.037 and the OD600 (100 mM glyphosate) was 1.31 ± 0.024. The OD600 (200 mM glyphosate) was 0.05 ± 0.004.
